This passage reports Kd results from PMC4652773, “Functional significance of protein assemblies predicted by the crystal structure of the restriction endonuclease BsaWI”.

Where a chain is given by its changes, count along the chain named.

What all share (assay): EMSA; 5 mM Ca2+; EMSA: 40 mM Tris-acetate pH 8.3, 0.1 mg/ml BSA, 10% glycerol, 5 mM CaCl2 or 0.1 mM EDTA, 1 nM DNA, room temperature, 15 min
Background: Mobility shift assays separate free from complexed probe on a gel.

One series deals with T1, BsaWI R259A (UniProt Q6UQ65 1-272, R259A).
T1 sequence: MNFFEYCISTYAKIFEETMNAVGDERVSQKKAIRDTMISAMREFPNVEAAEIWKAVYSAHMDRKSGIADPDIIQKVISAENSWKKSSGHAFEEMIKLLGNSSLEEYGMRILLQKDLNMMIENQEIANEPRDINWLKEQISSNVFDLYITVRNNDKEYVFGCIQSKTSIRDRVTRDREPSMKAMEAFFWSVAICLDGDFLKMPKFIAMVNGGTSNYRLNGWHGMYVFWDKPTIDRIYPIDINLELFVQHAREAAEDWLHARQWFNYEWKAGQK
The conditions noted are these: protein: recombinant; chain copies: 2; label: 33P; blunt.

A further series concerns the target T2, BsaWI R130A&R259A (UniProt Q6UQ65 1-272, R130A;R259A).
T2 sequence: T1 sequence with R130A
The conditions noted are these: protein: recombinant; chain copies: 2; label: 33P; blunt.

The next series concerns the target T3, BsaWI E128A (UniProt Q6UQ65 1-272, E128A).
T3 sequence: T1 sequence with E128A, A259R
The conditions noted are these: protein: recombinant; chain copies: 2; label: 33P; blunt.

The next series deals with T4, BsaWI K85A (UniProt Q6UQ65 1-272, K85A).
T4 sequence: T1 sequence with K85A, A259R
The conditions noted are these: protein: recombinant; chain copies: 4; label: 33P; blunt.

For another series, the target named is T5, BsaWI R259A&W262A (UniProt Q6UQ65 1-272, R259A;W262A).
T5 sequence: T1 sequence with W262A
The conditions noted are these: protein: recombinant; chain copies: 2; label: 33P; blunt.

A further series has as its target T6, BsaWI E128A&W262A (UniProt Q6UQ65 1-272, E128A;W262A).
T6 sequence: T1 sequence with E128A, A259R, W262A
The conditions noted are these: protein: recombinant; chain copies: 2; label: 33P; blunt.

The target of a further series is T7, BsaWI wt (UniProt Q6UQ65 1-272).
T7 sequence: T1 sequence with A259R
Particulars: protein: recombinant; chain copies: 4; label: 33P; blunt.

B1: SP (dsDNA)
DNA 1: GCCTTTCGGTTTACCGGTGTCATTCCGCTG
DNA 2: CAGCGGAATGACACCGGTAAACCGAAAGGC
By Kd is commonly meant the constant that tells how readily two partners part at equilibrium. On to B1, for which the Kd with BsaWI R259A stood at 2 ± 0.3 nM; with BsaWI R130A&R259A, 2.7 ± 0.5 nM; with BsaWI E128A, 2.19 ± 0.4 nM; in the series with BsaWI K85A it was 229 ± 9.1 nM; in the series with BsaWI R259A&W262A, 2.6 ± 0.6 nM; with BsaWI E128A&W262A, 2.7 ± 0.7 nM. Besides, the Kd with BsaWI wt was determined as 2.9 ± 0.4 nM.
